# Biological target: MHC class I allele A*0301 (A3) (Homo sapiens, UniProt P04439)
# Test: iTopia peptide binding assay, A*0301
# Conditions: percent of positive control peptide binding; peptide at 1.11×10^−5M
# Description: (§1) The 9 mers were tested for Peptide Binding, Off Rate and Affinity using iTopia Epitope Discovery System in accordance with the manufacturer's instructions. Briefly, 96 well microtitre plates coated with MHC molecules representing different MHC alleles are used to identify candidate peptides. […] Determinations are performed in duplicate using an ELISA plate reader and included allele specific positive controls.
# (§2) i) Peptide Binding—This assay measures the ability of individual peptides to bind to the MHC molecules under standardized optimal binding conditions. The assay is performed for all the test peptides across the selected MHC alleles. The test peptides identified as “binders” are characterized further in terms of affinity and dissociation experiments.
# (§3) Following a period of binding under optimal conditions, excess antibody is removed and a measurement of total fluorescence taken (D).
# (§4) The binding of the test peptides to the MHC molecules was performed at 1.11×10^−5M of peptide under optimal, standardised test conditions. A control peptide was run in parallel on the same plate and at the same concentration as the test peptides.
# (§5) The level of binding is expressed as a percent of positive control peptide binding for each allele.
row,Sequence,"Peptide binding, MHC Class I Molecule A*0301"
1,GKDRLTCAY [Peptide 159],6 % of control
2,HLESLHLED [Peptide 130],2 % of control
3,HNPLADLSP [Peptide 76],3 % of control
4,IFLLVLYLN [Peptide 185],0 % of control
5,INADPRLTN [Peptide 203],1 % of control
6,IRVFLDNNP [Peptide 144],3 % of control
7,IVPPEDERQ [Peptide 92],3 % of control
8,KGIKKWMHN [Peptide 190],3 % of control
9,LCECSEAAR [Peptide 33],0 % of control
10,LDNNPWVCD [Peptide 146],2 % of control
11,LELNSADLD [Peptide 168],5 % of control
12,LGIVLALIG [Peptide 180],1 % of control
13,LHLEDNALK [Peptide 132],5 % of control
14,LKETEVVQG [Peptide 155],4 % of control
15,LNLSGSRLD [Peptide 62],2 % of control
16,LNSADLDCD [Peptide 169],3 % of control
17,LPSLRHLDL [Peptide 117],1 % of control
18,LPSLRQLDL [Peptide 71],0 % of control

row,Sequence,"Peptide binding, MHC Class I Molecule A*0301"
1,LTCAYPEKM [Peptide 161],8 % of control
2,MRNRVLLEL [Peptide 165],4 % of control
3,NGTLAELQG [Peptide 138],3 % of control
4,NHIVPPEDE [Peptide 91],3 % of control
5,NNPWVCDCH [Peptide 147],16 % of control
6,NNSLVSLTY [Peptide 122],4 % of control
7,NRNLTEVPT [Peptide 40],0 % of control
8,PAAGDGRLR [Peptide 5],4 % of control
9,PAGAFARRP [Peptide 54],3 % of control
10,PALCECSEA [Peptide 32],0 % of control
11,PDQCPALCE [Peptide 30],0 % of control
12,PFAFSGSNA [Peptide 80],3 % of control
13,PHIRVFLDN [Peptide 143],3 % of control
14,PPEDERQNR [Peptide 93],0 % of control
15,PRLTNLSSN [Peptide 205],2 % of control
16,PWVCDCHMA [Peptide 148],0 % of control
17,QCPALCECS [Peptide 31],0 % of control
18,QPPLPDQCP [Peptide 28],1 % of control

# Biological target: MHC class I allele B*0702 (B7) (Homo sapiens, UniProt P01889)
# Test: iTopia peptide binding assay, B*0702
# Conditions: percent of positive control peptide binding; peptide at 1.11×10^−5M
# Description: as §1, §2, §3, §4, §5
row,Sequence,"Peptide binding, MHC Class I Molecule B*0702"
1,GKDRLTCAY [Peptide 159],4 % of control
2,HLESLHLED [Peptide 130],2 % of control
3,HNPLADLSP [Peptide 76],5 % of control
4,IFLLVLYLN [Peptide 185],2 % of control
5,INADPRLTN [Peptide 203],4 % of control
6,IRVFLDNNP [Peptide 144],5 % of control
7,IVPPEDERQ [Peptide 92],3 % of control
8,KGIKKWMHN [Peptide 190],6 % of control
9,LCECSEAAR [Peptide 33],0 % of control
10,LDNNPWVCD [Peptide 146],3 % of control
11,LELNSADLD [Peptide 168],3 % of control
12,LGIVLALIG [Peptide 180],0 % of control
13,LHLEDNALK [Peptide 132],0 % of control
14,LKETEVVQG [Peptide 155],3 % of control
15,LNLSGSRLD [Peptide 62],7 % of control
16,LNSADLDCD [Peptide 169],0 % of control
17,LPSLRHLDL [Peptide 117],96 % of control
18,LPSLRQLDL [Peptide 71],82 % of control

row,Sequence,"Peptide binding, MHC Class I Molecule B*0702"
1,LTCAYPEKM [Peptide 161],5 % of control
2,MRNRVLLEL [Peptide 165],13 % of control
3,NGTLAELQG [Peptide 138],0 % of control
4,NHIVPPEDE [Peptide 91],5 % of control
5,NNPWVCDCH [Peptide 147],4 % of control
6,NNSLVSLTY [Peptide 122],0 % of control
7,NRNLTEVPT [Peptide 40],5 % of control
8,PAAGDGRLR [Peptide 5],5 % of control
9,PAGAFARRP [Peptide 54],7 % of control
10,PALCECSEA [Peptide 32],0 % of control
11,PDQCPALCE [Peptide 30],1 % of control
12,PFAFSGSNA [Peptide 80],7 % of control
13,PHIRVFLDN [Peptide 143],10 % of control
14,PPEDERQNR [Peptide 93],0 % of control
15,PRLTNLSSN [Peptide 205],11 % of control
16,PWVCDCHMA [Peptide 148],0 % of control
17,QCPALCECS [Peptide 31],0 % of control
18,QPPLPDQCP [Peptide 28],3 % of control

# Biological target: MHC class I allele A*0101 (A1) (Homo sapiens, UniProt P04439, A114D/A174V/A182V/D101N/D185E/E176A/E190D/L180R/Q94H/R68K/S129P/T187R/V100A/V91M/W191G)
# Test: iTopia peptide binding assay, A*0101
# Conditions: percent of positive control peptide binding; peptide at 1.11×10^−5M
# Description: as §1, §2, §3, §4, §5
row,Sequence,"Peptide binding, MHC Class I Molecule A*0101"
1,GKDRLTCAY [Peptide 159],3 % of control
2,HLESLHLED [Peptide 130],4 % of control
3,HNPLADLSP [Peptide 76],5 % of control
4,IFLLVLYLN [Peptide 185],0 % of control
5,INADPRLTN [Peptide 203],0 % of control
6,IRVFLDNNP [Peptide 144],0 % of control
7,IVPPEDERQ [Peptide 92],6 % of control
8,KGIKKWMHN [Peptide 190],3 % of control
9,LCECSEAAR [Peptide 33],3 % of control
10,LDNNPWVCD [Peptide 146],0 % of control
11,LELNSADLD [Peptide 168],0 % of control
12,LGIVLALIG [Peptide 180],0 % of control
13,LHLEDNALK [Peptide 132],4 % of control
14,LKETEVVQG [Peptide 155],0 % of control
15,LNLSGSRLD [Peptide 62],2 % of control
16,LNSADLDCD [Peptide 169],0 % of control
17,LPSLRHLDL [Peptide 117],0 % of control
18,LPSLRQLDL [Peptide 71],0 % of control

row,Sequence,"Peptide binding, MHC Class I Molecule A*0101"
1,LTCAYPEKM [Peptide 161],16 % of control
2,MRNRVLLEL [Peptide 165],0 % of control
3,NGTLAELQG [Peptide 138],3 % of control
4,NHIVPPEDE [Peptide 91],6 % of control
5,NNPWVCDCH [Peptide 147],0 % of control
6,NNSLVSLTY [Peptide 122],8 % of control
7,NRNLTEVPT [Peptide 40],1 % of control
8,PAAGDGRLR [Peptide 5],4 % of control
9,PAGAFARRP [Peptide 54],2 % of control
10,PALCECSEA [Peptide 32],4 % of control
11,PDQCPALCE [Peptide 30],5 % of control
12,PFAFSGSNA [Peptide 80],0 % of control
13,PHIRVFLDN [Peptide 143],0 % of control
14,PPEDERQNR [Peptide 93],0 % of control
15,PRLTNLSSN [Peptide 205],2 % of control
16,PWVCDCHMA [Peptide 148],0 % of control
17,QCPALCECS [Peptide 31],3 % of control
18,QPPLPDQCP [Peptide 28],6 % of control

# Biological target: MHC class I allele A*0201 (A2) (Homo sapiens, UniProt P04439, D140Y/D185E/D98H/E176V/E277Q/G131W/G231S/I119V/I121R/I166T/I218V/L300P/L318F/N151K/N90K/P208A/P217A/Q86G/Q94H/R138H/R169H/T345S)
# Test: iTopia peptide binding assay, A*0201
# Conditions: percent of positive control peptide binding; peptide at 1.11×10^−5M
# Description: as §1, §2, §3, §4, §5
row,Sequence,"Peptide binding, MHC Class I Molecule A*0201"
1,GKDRLTCAY [Peptide 159],6 % of control
2,HLESLHLED [Peptide 130],3 % of control
3,HNPLADLSP [Peptide 76],7 % of control
4,IFLLVLYLN [Peptide 185],8 % of control
5,INADPRLTN [Peptide 203],3 % of control
6,IRVFLDNNP [Peptide 144],4 % of control
7,IVPPEDERQ [Peptide 92],12 % of control
8,KGIKKWMHN [Peptide 190],14 % of control
9,LCECSEAAR [Peptide 33],8 % of control
10,LDNNPWVCD [Peptide 146],0 % of control
11,LELNSADLD [Peptide 168],3 % of control
12,LGIVLALIG [Peptide 180],10 % of control
13,LHLEDNALK [Peptide 132],4 % of control
14,LKETEVVQG [Peptide 155],3 % of control
15,LNLSGSRLD [Peptide 62],7 % of control
16,LNSADLDCD [Peptide 169],0 % of control
17,LPSLRHLDL [Peptide 117],16 % of control
18,LPSLRQLDL [Peptide 71],27 % of control

row,Sequence,"Peptide binding, MHC Class I Molecule A*0201"
1,LTCAYPEKM [Peptide 161],40 % of control
2,MRNRVLLEL [Peptide 165],6 % of control
3,NGTLAELQG [Peptide 138],9 % of control
4,NHIVPPEDE [Peptide 91],11 % of control
5,NNPWVCDCH [Peptide 147],0 % of control
6,NNSLVSLTY [Peptide 122],12 % of control
7,NRNLTEVPT [Peptide 40],6 % of control
8,PAAGDGRLR [Peptide 5],5 % of control
9,PAGAFARRP [Peptide 54],4 % of control
10,PALCECSEA [Peptide 32],19 % of control
11,PDQCPALCE [Peptide 30],3 % of control
12,PFAFSGSNA [Peptide 80],13 % of control
13,PHIRVFLDN [Peptide 143],2 % of control
14,PPEDERQNR [Peptide 93],2 % of control
15,PRLTNLSSN [Peptide 205],8 % of control
16,PWVCDCHMA [Peptide 148],0 % of control
17,QCPALCECS [Peptide 31],2 % of control
18,QPPLPDQCP [Peptide 28],5 % of control

# Source: US8147838B2, “Peptide” (priority 2005, dated 2012)
